Data on two molecules can be found in paper PMC4822319, “Quaternary structure of a G-protein-coupled receptor heterotetramer in complex with Gi and Gs” (BMC Biology, 2016).

Data set [1] concerns the target adenosine A1 receptor fused to a hemi-Rluc8 (A1R-nRluc8) or to a hemi-Venus (A1R-nVenus) (human) (UniProt P30542).
Data set [2] deals with the molecule itself. Kind of data set: single-particle tracking and brightness analysis (TIRFM); living HEK-293T cells expressing A1R-GFP alone or A2AR-mCherry alone; number of receptors in a particle from the brightness distribution of the individual particles.

Chain of adenosine A1 receptor fused to a hemi-Rluc8 (A1R-nRluc8) or to a hemi-Venus (A1R-nVenus) (human) (P30542 whole entry, the tested form may be a part): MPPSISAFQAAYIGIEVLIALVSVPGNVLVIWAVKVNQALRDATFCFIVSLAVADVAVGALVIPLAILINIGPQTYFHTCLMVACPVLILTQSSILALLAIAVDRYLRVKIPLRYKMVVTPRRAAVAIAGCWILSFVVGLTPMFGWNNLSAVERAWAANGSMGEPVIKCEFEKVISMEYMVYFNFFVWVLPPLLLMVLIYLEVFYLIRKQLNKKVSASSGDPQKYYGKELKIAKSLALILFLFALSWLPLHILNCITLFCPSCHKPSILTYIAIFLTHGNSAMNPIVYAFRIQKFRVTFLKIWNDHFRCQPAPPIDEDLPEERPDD

“α-subunit of Gi fused to Rluc (Gi-Rluc) (from UniProt P63096 1-354) (natural protein)”: the decrease of BRETmax of the complementation BRET (A1R and A2AR fused to hemi-Rluc8 and hemi-Venus, the heterotetramer) after pertussis toxin (10 ng/ml, 16 h); endogenous Gi in data set [1] was found to be 35%.

B1: adenosine A2A receptor fused to mCherry (A2AR-mCherry) (receptor, human, UniProt P29274 1-412, looked up)
chain: MPIMGSSVYITVELAIAVLAILGNVLVCWAVWLNSNLQNVTNYFVVSLAAADIAVGVLAIPFAITISTGFCAACHGCLFIACFVLVLTQSSIFSLLAIAIDRYIAIRIPLRYNGLVTGTRAKGIIAICWVLSFAIGLTPMLGWNNCGQPKEGKNHSQGCGEGQVACLFEDVVPMNYMVYFNFFACVLVPLLLMLGVYLRIFLAARRQLKQMESQPLPGERARSTLQKEVHAAKSLAIIVGLFALCWLPLHIINCFTFFCPDCSHAPLWLMYLAIVLSHTNSVVNPFIYAYRIREFRQTFRKIIRSHVLRQQEPFKAAGTSARVLAAHGSDGEQVSLRLNGHPPGVWANGSAPHPERRPNGYALGLVSGGSAQESQGNTGLPDVELLSHELKGVCPEPPGLDDPLAQDGAGVS
notes: adenosine A2A receptor, human, UniProt P29274; The construct for single-particle tracking is not described in the main text; details may stand in Additional file 11 (Supplementary methods); also called A2A-mCherry; A2A-Cherry; source: HEK-293T, transiently transfected, on living cells; not shown: mCherry, C-terminal, kept
For B1, the stoichiometry N (commonly the number of molecules, sites or subunits per partner or assembly) in data set [2] was found to be 3.
